We go through 18 molecules from patent US20260258115A1 (MAPP BIOPHARMACEUTICAL, published 2026).

Common to all, as to assay: BLI, IgG
For orientation: BLI is a label-free optical method that tracks binding on a fibre tip over time.

Assay [1] addresses RSV prefusion F (preF), subtype A (respiratory syncytial virus, subtype A, UniProt P03420 26-513).
Assay [2] has as its target RSV prefusion F (preF), subtype B (respiratory syncytial virus, subtype B).
The target of assay [3] is T1, RSV postfusion F (postF), subtype A (respiratory syncytial virus, subtype A, UniProt P03420 26-513).
T1 construct: also called F ΔFP; Postfusion subtype A

As usually defined, the Kd is the constant that tells how readily two partners part at equilibrium. A lower Kd goes with a tighter complex.

B1: ADI-14597 (antibody, V domains shown)
VH: EVQLVESGGVVVQPGGSLRLSCAVSGFNFDDYSMHWVRQLPGKGLEWVSLISWDGGITYYADSVKGRFTISRDNSKNSLYLQMNSLRTEDTALYYCAKDGNRYSDNDYYFDYWGQGTLVTVSS
VL: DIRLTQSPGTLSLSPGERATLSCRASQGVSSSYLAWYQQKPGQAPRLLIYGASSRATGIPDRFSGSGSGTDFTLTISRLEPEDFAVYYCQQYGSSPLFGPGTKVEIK
B1: the Kd in assay [1] was found to be 5.26 nM; in assay [2], 1.67 nM. Besides, the binding result in assay [3] is on record as “no binding”.

B2: ADI-14602 (antibody, V domains shown)
VH: EVQLVESGGGVVQPGGSLRLSCAASGFSFSSCGMHWVRQVSGKGLEWVAFIRYDGSNKFYADSVKGRFTISRDNSKNTLYLQMNSLRVEDTAVYYCAKGGLEDVSTGYSPHYYYGMDVWGQGTTVTVSS
VL: QPVLTQPPSVSVSPGQTASITCSGDKLAYKYTCWYQQKPGQSPVLVIFQDSKRPSGIPERFSGSNSGNTATLTISGTQALDEADYYCQAWDSSTVVFGGGTKLTVL
notes: also called Ab 130
Take B2: the results for the Kd in assay [1] and in assay [2] were 4.73 nM and 8.94 nM, respectively. Besides, the binding result in assay [3] is “no binding”.

B3: ADI-20961 (antibody, V domains shown)
VH: QVQLVESGGGLVKPGGSLRLSCAASGFKFSSYYMHWVRQAPGKGLEWVSSVSGGSTYTSYADSVKGRFTISRDNAKHSLFLQLNSLRAEDTAVYHCVRGDYHPSGTSLNWFDPWGQGTLVTVSS
VL: QPGLTQPPSVSGAPGQRVTISCTGSSSNIGAGYDVHWYKQLPGTVPKLLIYANNNRPSGVPDRFSGSESGTSASLAITGLQAEDEADYYCQSYDSSLNAYVFGTGTKVTVL
As to B3, the Kd in assay [1] amounted to 0.374 nM; in assay [2], 0.504 nM. Further, the binding result in assay [3] is recorded as “no binding”.

B4: ADI-14415 (antibody, V domains shown)
VH: EVQLVESGPGLVKPSETLSLTCTVSGGSISNYYWTWIRQPPGEGLEWIGYIYYTGSTNYNPSLKNRVTISVDTPKNQFSLKLNSVTAADTAVYYCARGWGYSYGYESYYNGLDVWGQGTTVTVSS
VL: DIQLTQSPSFLSASVGDRVTITCRASQGISSYLAWYQLKPGKAPKLLIYAAATLETGVPSRFSGSGSGTEFTLTISGLQPEDFATYYCQQLNSFPFTFGPGTKVEIK
notes: also called Ab 81
As to B4, the Kd in assay [1] worked out at 4.2 nM; in assay [2] it was 3.51 nM. For the same molecule, the binding result in assay [3] is “no binding”.

B5: ADI-14577 (antibody, V domains shown)
VH: QVQLVQSGAEVKKPGASVKVSCKASGYTFTNYGITWVRQAPGQGLEWMGWISAYNGVRNYAQKLQGRVTMTIDTSRTTAYMELKNLRSDDTAMYYCARGPPVIAADDFQHWGQGTMVTVSS
VL: DIQMTQSPLSLPVTLGQPASISCRSSQSLVHSNGDTYLNWFQQRPGRSPRRLIYKVSNRDSGVPDRFSGSGSGTDFTLKISRVEAEDVGVYYCMQGTHWPPDFGQGTRLEIK
With B5, the Kd came to 0.439 nM in assay [1] and 2.19 nM in assay [2]. Moreover, the binding result in assay [3] is “no binding”.

B6: ADI-14410 (antibody, V domains shown)
VH: QVQLQQWGAGLLKPSETLSLTCAIYSGSFSGYYWSWIRQPPGKGLEWIGQINYSGSAYYTPSLKSRVTISVDTSKNQFSLKLSSVTAADTAVYYCARVRITMVQGAIVPCAIDVWGQGTTVTVSS
VL: SYELTQPPSASGTPGQRVTISCSGSSSNIESNFVYWYQQLPGTAPKLLIHRNDQRPSGVPDRFSGSKSGTSASLAISGLRSEDEADYSCAAWDDSLSGVVFGGGTKVTVL
notes: also called Ab 76
Turning to B6, the Kd in assay [1] is 3.77 nM; in assay [2] it was 17.1 nM. For the same molecule, the binding result in assay [3] is on record as “no binding”.

B7: ADI-14427 (antibody, V domains shown)
VH: QVQLVQSGAEVKKPGSSVKVSCKASGGTFNSYTINWVRQAPGQGLEWMGRIITIPGATNYAQKFQGRVTFTADKSTSTAYMELSSLRSEDTAVYFCAKRGTGYYGMDVWGQGTTVTVSS
VL: QSVLIQPRSVSGSPGQSVTISCTGTSSDVGGYNYVSWYQQHPGKAPKLMIYDVSERPSGVPDRFSGSKSGNTASLTISGLQAEDEADYYCCSFVGIYILVFGGGTKLTVL
notes: also called Ab 93
Take B7: the Kd came out at 0.234 nM in assay [1], 10.8 nM in assay [2] and 3.33 nM in assay [3].

B8: ADI-14426 (antibody, V domains shown)
VH: EVQLVESGGGVVQPGRSLRLSCAASGFTFSSFPMHWVRQAPGKGLEWVAVASYDGRNNYYAGSVKGRFTISRDNSKNTLYLQINSLRAEDTAVYYCAREVVIAAHFDYWGQGTLVTVSS
VL: SSELTQEPAVSVALGQTVRITCQGDSLRSFYANWYQQKPGQAPILVIYGKNDRPSGIPDRFSGSNSGNTASLTITGAQAEDEADYYCNSRDSSGNHRVFGGGTKVTVL
notes: also called Ab 92
B8: the results for the Kd in assay [1], in assay [2] and in assay [3] were 23.8 nM, 19.2 nM and 0.396 nM, respectively.

B9: ADI-14604 (antibody, V domains shown)
VH: EVQLLESGGGLVQPGGSLRLSCSASGFTFNNYVMHWVRQAPGKGLEDASAISSNGVSTNYADSVKGRFTISRDNSKNTLYLQMRSLRAEDTALYYCVRDLIPHDSSAYYGYHGMDVWGQGTTVTVSS
VL: QPVLTQPPSASGTPGQSVTISCSGSSSNIGTNVVNWYQQLPGTAPKLLIYSNDLRPSGVPDRFSGSKSGTSASLAISGLQSEDEANYYCAAWDDSLNGVLFGGGTKLTVL
With B9, the Kd in assay [1] came to 2.44 nM; in assay [2], 1.53 nM. Besides, the binding result in assay [3] was “no binding”.

B10: ADI-14413 (antibody, V domains shown)
VH: EVQLVESGGVVVQPGGSLRLSCAASGFNFDDYSMHWVRQAPGKGLEWVSVISWDGGITYYADSVKGRFTMSRDNGKKSLYLQMNSLRTEDTAVYYCGKDGDIYSSSSAGIDYWGQGTLVTVSS
VL: SYVLTQPPSASGTPGQRVIISCSGSSSNIGSHTVKWYQQLPGTAPKLLIDRNNQRPSGVPDRFSGPKSGTSASLAISGLQSEDEADYYCASWDDSLNGPVFGGGTQLTVL
notes: also called Ab 79
As for B10, the Kd in assay [1] stood at 5.45 nM; in assay [2], 2.71 nM. In addition, the binding result in assay [3] was “no binding”.

B11: ADI-14411 (antibody, V domains shown)
VH: QVQLVQSGAEVKKPGASVKLSCKASGYTFTRFYIHWVRQAPGQGLEWMGIINPSGGGTSYAQNFQDRVTMTRDTSTSTVYMELSSLRSEDTAVYYCARNGYSTRSLQNNWFDPWGQGTLVTVSS
VL: ETTLTQSPSSLSASVGDRVTITCRASQSIDNYLNWYQQKPGKAPKLLIYEASSLQSGVPSRFSGSGSGTDFTLTISSLQPEDFATYYCQQTYSSLPYTFGQGTKVEIK
notes: also called Ab 77
Regarding B11, the Kd in assay [1] worked out at 6.12 nM; in assay [2], 3.92 nM. The binding result in assay [3] is “no binding”.

B12: ADI-14578 (antibody, V domains shown)
VH: QVQLVQSGAEVKKPGSSVKVSCKASGGTFNNYAINWVRQAPGQGLEWMGGIIPMFGTANYAQKFQGRVTMTADESTSTAYMELSSLRSEDTAVYYCASSQIFVGGNYYKLEFDNWGQGTLVTVSS
VL: QSVLTQPPSVSAAPGQKVTISCSGSNSNIGYNDVSWYQQLPGTAPQLLIYDNNKRTSGIPDRFSGSKFGTSATLGITGLQTGDEADYYCGTWDSSLSTVIFGGGTKLTVL
Consider B12, for which the Kd turned out to be 3.29 nM in assay [1] and 4.02 nM in assay [2]. In addition, in assay [3], the binding result was “no binding”.

B13: ADI-14420 (antibody, V domains shown)
VH: EVQLVESGGVVVQPGGSLRLSCAASGFNFDDYAMHWVRQAPGKGLEWVSLISWDGGNTYYSDSVKGRFTISRDNGKNSLYLQMNSLRAEDTALYYCAKDIDRYSGYDYVFHYWGQGTLVTVSS
VL: DIRLTQSPSTLSAYVGDRVTITCRASQSISSWLAWYQQKPGKAPKLLIYKASSLESGVPSRFTGSGSGTEFTLTISGLQPDDFATYYCQQYNSYSTFGGGTKVDIK
notes: also called Ab 86
B13: the Kd in assay [1] turned out to be 6.35 nM; in assay [2], 4.32 nM. Also, in assay [3], the binding result is recorded as “no binding”.

B14: ADI-20959 (antibody, V domains shown)
VH: EVQLLESGAEVKKPGASVKVSCKTSGYTFSNYGVSWVRQAPGQGLEWLGWISAYNGNTNYAQKLQGRVTMTTDSSTSTAYMEVRSLRSDDTAVYYCARDVAPVAASLFDYWGQGTLVTVSS
VL: DIRLTQSPLSLPVTLGQPASISCRSSQSLEFTDGNTYLSWFQQRPGQSPRRLIYKVSNRDSGVPDRFSGSGSGTDFTLKINRVEAEDVGVYYCMQGIHWPPTFGPGTKVEIK
With B14, the Kd in assay [1] came to 0.337 nM; in assay [2] it was 0.43 nM. In assay [3], the binding result is reported as “no binding”.

B15: ADI-14414 (antibody, V domains shown)
VH: QVQLVQSGAEVKKPGSSMKVSCKASGGSFSSYGISWLRQAPGQAPEWMGGIIPIFGTINYAQKFQGRITISADESTSTVYMELSSLRIEDTAVYYCARDGRTSPRYYGWDVWGQGTTVTVSS
VL: DIRLTQSPATLSLSPGDRATLSCRASQSLYTYLSWYQQKPGQAPRLLIYDASNRATGIPARFSGSGSGTDFTLTISSLEPEDFAVYYCHYRSNWPPCTFGGGTKVDIK
notes: also called Ab 80
Turning to B15, the Kd in assay [1] came to 5 nM; in assay [2], 3.07 nM. The binding result in assay [3] is “no binding”.

B16: ADI-14423 (antibody, V domains shown)
VH: EVQLVESGGVVIQPGGSLRLSCAASGFNFDDYSMHWVRQAPGKGLEWVSLISWDGGITYYADSVKGRFTISRDNGKKSLYLQMNSLRTEDTALYYCAKDIDIYSDYAGYFDYWGQGTLVTVSS
VL: DIRMTQSPSSLSASVGDRVTITCRASQGIRNDLGWYQQKPGKAPKRLIYAASSLQSGVPSRFSGSGSGTEFTLTISSLQPEDFATYYCLQHNSYPFTFGQGTRLEIK
notes: also called Ab 89
With B16, the Kd in assay [1] was 9.65 nM; in assay [2] it was 3.4 nM. In addition, in assay [3], the binding result is on record as “no binding”.

B17: ADI-14422 (antibody, V domains shown)
VH: QVQLVQSGAEVKKPGSSVKVSCKASGGTFSSYTINWVRQAPGQGLEWMGRIIPILGIANYAQKFQGRVTITADKSTSTAYMELSSLRSEDTAVYYCARRHQDTYGMDVWGQGTTVTVSS
VL: QSVLTQPPSVSGAPGQRVTISCTGSSSNIGAGYDVHWYQQLPGTAPKLLIYGNSNRPSGVPDRFSGSKSGTSASLAITGLQAEDEADYYCQSYDSSLSGSVFGGGTKVTVL
notes: also called Ab 88
B17: the results for the Kd in assay [1], in assay [2] and in assay [3] were 11.4 nM, 33.9 nM and 4.76 nM, respectively.

B18: ADI-14600 (antibody, V domains shown)
VH: QVQLVQSGGGLVKPGGSLRLSCAASGFSFSDYYMNWIRQAPGKGLEWVSYISSSSSYTNYADSVKGRFTISRDNAKKSLYLQMNSLRAEDTAVYYCASQTYSDYARGGAFDIWGQGTTVTVSS
VL: QSVLTQPPSVSGAPGQRVTISCTGSSSNIGAGYDVHWYQQLPGTAPKLLIYGNNNRPSGVPDRFSGSKSGTSASLAITGLQAEDEADYYCQSYDSSLSGSVFGTGTKVTVL
As for B18, the Kd in assay [1] amounted to 0.758 nM; in assay [2], 0.986 nM. Further, the binding result in assay [3] is listed as “no binding”.
